Test results: patent US20160122417A1

Target: wild-type human EGFR from A431 cells (human) (UniProt P00533)
Experiment: scFv-linked agarose beads incubated with A431 cell lysate; captured EGFR detected with anti-EGFR antibody cocktail, bead fluorescence normalized to the U87-EGFRvIII lysate signal

- percent reduction in A431 lysate EGFR binding signal relative to U87-EGFRvIII lysate signal: 85%
Substance: MR1 scFv, azide-functionalized and immobilized on DBCO-functionalized agarose beads
